This data set concerns the molecule itself. The experiment in a line: mass photometry (Refeyn) after dilution in PBS and 60 min at 37 C; self-association of the chain into dimer and tetramer. The method, then:
For this example, a Refeyn Mass photometer (Refeyn Ltd, Oxford UK) was used according to the manufacturer's instructions, with the following settings:
The GD2-SADA construct was diluted in PBS, and incubated for 60 minutes at 37° C. before measuring the size distribution. Following dilutions were made: 150 nM, 100 nM, 50 nM, 10 nM, 5 nM, 1 nM and 100 PM and subjected to Mass photometry using the Refeyn Mass photometer.

B1: GD2-SADA complex (other)
chain: EIVMTQTPATLSVSAGERVTITCKASQSVSNDVTWYQQKPGQAPRLLIYSASNRYSGVPARFSGSGYGTEFTFTISSVQSEDFAVYFCQQDYSSFGCGTKLEIKRGGGGSGGGGSGGGGSGGGGSGGGGSGGGGSQVQLVESGPGVVQPGRSLRISCAVSGFSVTNYGVHWVRQPPGKCLEWLGVIWAGGITNYNSAFMSRLTISKDNSKNTVYLQMNSLRAEDTAMYYCASRGGHYGYALDYWGQGTLVTVSSGGGGSGGGGSGGGGSGGGGSHVQLVESGGGLVQPGGSLRLSCAASGFSLTDYGVHWVRQAPGKGLEWLGVIWSGGGTAYNTALISRFTISRDNSKNTLYLQMNSLRAEDTAVYYCARRGSYPYNYFDAWGCGTLVTVSSGGGGSGGGGSGGGGSGGGGSGGGGSGGGGSQAVVTQEPSLTVSPGGTVTLTCGSSTGAVTASNYANWVQQKPGQCPRGLIGGHNNRPPGVPARFSGSLLGGKAALTLLGAQPEDEAEYYCALWYSDHWVIGGGTKLTVLGTPLGDTTHTSGKPLDGEYFTLQIRGRERFEMFRELNEALELKDAQAGKEPGGSGGA
notes: A single polypeptide: anti-GD2 scFv, humanized C825 (anti-DOTA) scFv and the p53 tetramerization (SADA) domain; It is written here as one chain that associates with itself; In the mass photometry assay it was a concentration-dependent mixture of monomer, dimer, tetramer and higher multimers; also called GD2-SADA construct; GD2-SADA conjugate
As for B1, the binding result is on record as “binds”.

The values above are taken from US20250041410A1 (Y MABS THERAPEUTICS, published 2025).
